Measured values taken from the supplement of paper PMC10567573.

B1: C9orf9 (parent)
chain: LTKASLKPRGCSKPPWRPPGGKL

Variants of: B1
Assay: protein stability index of a GFP-peptide fusion (GPS, HEK-293T) (PSI 1-6); higher = more stable
Settings: c terminus: native
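Note: lentivirally expressed fusions sorted by FACS into six bins by GFP to DsRed ratio, PSI derived from sequencing read proportions per bin multiplied by bin number.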

Protein stability index of substitutions, site by site:
K13: S 2.62, I 2.1, M 2.87, C 2.9, Q 2.3, E 3.46, R 1.49, G 2.78, D 3.65
P14: L 2.24, A 1.54, W 1.94, V 2.36, S 1.38
P19: L 3.21, Y 1.22, F 1.69, S 3.87, V 1.78, T 3.72, N 4.1, I 1.24, E 4.05, H 2.23, G 3.44, R 2.6, M 3.15, C 2.91, D 4.43
G21: V 3.39, P 2.03, R 1.75, W 2.02, K 4.05, A 1.86, Y 2.35
P15: R 2.34, H 2.18, N 1.77, Y 2.73, G 2.02, V 2.02, E 3.93, M 1.78, T 3.08, I 2.36, Q 2.77, W 1.16, D 3.75, L 3.21
P18: W 2.9, H 3.78, N 2.93, I 2.18, K 2.85, Q 2.26, R 2.46, M 3.68, Y 2.86, L 1.32
G10: T 2.5, D 2.36, C 1.97, A 2.74, V 2.19, P 2.24, N 2.06, S 2.7, L 2.96, R 3.37, H 2.29, Q 1.88, Y 2.25, M 2.19, E 2.18, I 2.47, K 2.43, F 1.91, W 2.02
R17: S 4.71, M 3.49, Q 4.16, L 3.69, P 2.71, W 3.47, N 4.2, F 3.37, A 3.53, V 3.35, K 3.26, D 3.87
L23: W 1.03, N 1.92, R 3.08, P 3.08, F 1.24, Q 2.91, M 2.1, C 1.68, Y 2.13, H 2.48
K22: F 2.03, N 3.08, Q 3.53, G 2.1, M 2.73, Y 3.71, V 4.26, S 2.67, C 3.7
C11: I 2.1, N 1.58, P 1.65, G 2.13, H 3.08, L 2.39, D 1.76, Y 1.27, M 1.71, W 2.1, Q 1.54, S 2, V 2.1
R9: Q 2.68, L 2.96, W 2.31, T 1.45, P 1.34, I 1.85, Y 3.3, N 2.07, V 2.91, M 2.33, S 1.95
G20: K 3.36, R 2.18, V 3.83, Y 2.56, F 3.03, D 4.64, S 2.76, N 2.27, H 3.77, I 2.42, M 2.13, C 2.91
W16: E 2.19, V 3.43, Y 2.25, F 2.03, I 1.87, G 2.29
S12: F 1.3, V 2.52, T 3.8, G 1.99, L 1.66, A 2.42, I 2.3, H 1.53, C 1.49, P 1.48, W 3.5, E 2.02, R 1.34, N 2.05, M 5.53
